First the molecules themselves.
B1: GTPBP6 -24T (rs1393008234 minor) (dsDNA)
DNA 1: ATCACGAGCACGTTATGAGGAGCGGC
DNA 2: GCCGCTCCTCATAACGTGCTCGTGAT
B2: ASMT -30A (rs1402972626 minor) (dsDNA)
DNA 1: GGTGACCTTTTGTACCCAGAATAGGT
DNA 2: ACCTATTCTGGGTACAAAAGGTCACC
B3: CDY2A -24 WT (printed -24G, sequence has T) (dsDNA)
DNA 1: AGAATGTTCCATATAATCGTCATAGC
DNA 2: GCTATGACGATTATATGGAACATTCT
B4: GTPBP6 -24G (rs1393008234 WT) (dsDNA)
DNA 1: ATCACGAGCACGTGATGAGGAGCGGC
DNA 2: GCCGCTCCTCATCACGTGCTCGTGAT
B5: CDY2A -24 minor (printed -24t, sequence has C) (dsDNA)
DNA 1: AGAATGTTCCATACAATCGTCATAGC
DNA 2: GCTATGACGATTGTATGGAACATTCT
B6: ZFY -56C (WT) (dsDNA)
DNA 1: GGCGGAGGGGGCCCAACTACCATCCC
DNA 2: GGGATGGTAGTTGGGCCCCCTCCGCC
B7: ASMT -30G (rs1402972626 WT) (dsDNA)
DNA 1: GGTGACCTTTTGTGCCCAGAATAGGT
DNA 2: ACCTATTCTGGGCACAAAAGGTCACC
B8: ZFY -56T (minor) (dsDNA)
DNA 1: GGCGGAGGGGGCCTAACTACCATCCC
DNA 2: GGGATGGTAGTTAGGCCCCCTCCGCC
B9: SHOX -45A (rs1452787381 WT) (dsDNA)
DNA 1: GAGGTCGCCGCGTATAAATAGTGAGA
DNA 2: TCTCACTATTTATACGCGGCGACCTC
B10: SHOX -45G (rs1452787381 minor) (dsDNA)
DNA 1: GAGGTCGCCGCGTGTAAATAGTGAGA
DNA 2: TCTCACTATTTACACGCGGCGACCTC

The first data set deals with T1, TBP (TATA-binding protein) (human, UniProt P20226 1-339). The data set is described as follows: EMSA; 2 nM TBP; EMSA with 2 nM TBP and varied ODN concentrations; Kd from reaction rates vs ODN concentration (GraphPad Prism 5); buffer, salt, pH and temperature not given in. Particulars: protein: recombinant; blunt. (Mobility shift assays separate free from complexed probe on a gel.)
T1 sequence (P20226 whole entry): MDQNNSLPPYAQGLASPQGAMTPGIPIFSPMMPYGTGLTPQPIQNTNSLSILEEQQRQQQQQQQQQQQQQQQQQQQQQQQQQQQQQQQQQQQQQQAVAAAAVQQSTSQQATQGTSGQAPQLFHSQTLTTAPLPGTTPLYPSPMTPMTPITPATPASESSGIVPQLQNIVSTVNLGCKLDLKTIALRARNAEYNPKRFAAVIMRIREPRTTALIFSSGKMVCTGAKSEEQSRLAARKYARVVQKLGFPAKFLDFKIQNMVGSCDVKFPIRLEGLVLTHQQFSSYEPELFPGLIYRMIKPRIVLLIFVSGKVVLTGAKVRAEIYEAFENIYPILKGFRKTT
Usually Kd stands for the equilibrium constant for the complex coming apart. Consider B1, for which the Kd came out at 1400 ± 200 nM. B2: the Kd came to 1000 ± 300 nM. As for B3, the Kd turned out to be 160 ± 30 nM. Same read-out and setting: the value for B4 was 1500 ± 200 nM; that for B5 was 500 ± 200 nM; that for B6 was 1000 ± 400 nM. Consider B7, for which the Kd is 600 ± 300 nM. As for B8, the Kd came out at 2000 ± 1000 nM.

The target in the next data set is TBP (Homo sapiens) (UniProt P20226).
Experiment: not given
Particulars: cited from earlier work.
Regarding TBP (from UniProt P20226), the Kd is 4 nM.

For a further data set, the target named is T1, TBP (TATA-binding protein). Kind of data set: EMSA; 2 nM TBP; Kd from association kinetics; EMSA with 2 nM TBP and varied ODN concentrations; Kd from reaction rates vs ODN concentration (GraphPad Prism 5); buffer, salt, pH and temperature not given in. Particulars: protein: recombinant; blunt.
Consider B9, for which the Kd worked out at 39 ± 7 nM. As to B10, the Kd was 260 ± 70 nM.

The record behind these values is PMC7583315, “Disruptive natural selection by male reproductive potential prevents underexpression of protein-coding genes on the human Y chromosome as a self-domestication syndrome”.
